US20220332804A1 (CSL INNOVATION, published 2022)
Residue numbers refer to the chain shown, from its start.

Tests used:
Assay in all cases: SPR, KD relative to WT C2;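 further: biacore SPR at 37 °C, anti-C2 mAbs captured via immobilised goat anti-human IgG, C2 alanine or serine surface mutants as analytes, 1:1 model fitted, double-referenced sensograms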
human C2 D431A = biological target: T1, human C2 D431A (human, UniProt P06681 21-752)
T1 sequence: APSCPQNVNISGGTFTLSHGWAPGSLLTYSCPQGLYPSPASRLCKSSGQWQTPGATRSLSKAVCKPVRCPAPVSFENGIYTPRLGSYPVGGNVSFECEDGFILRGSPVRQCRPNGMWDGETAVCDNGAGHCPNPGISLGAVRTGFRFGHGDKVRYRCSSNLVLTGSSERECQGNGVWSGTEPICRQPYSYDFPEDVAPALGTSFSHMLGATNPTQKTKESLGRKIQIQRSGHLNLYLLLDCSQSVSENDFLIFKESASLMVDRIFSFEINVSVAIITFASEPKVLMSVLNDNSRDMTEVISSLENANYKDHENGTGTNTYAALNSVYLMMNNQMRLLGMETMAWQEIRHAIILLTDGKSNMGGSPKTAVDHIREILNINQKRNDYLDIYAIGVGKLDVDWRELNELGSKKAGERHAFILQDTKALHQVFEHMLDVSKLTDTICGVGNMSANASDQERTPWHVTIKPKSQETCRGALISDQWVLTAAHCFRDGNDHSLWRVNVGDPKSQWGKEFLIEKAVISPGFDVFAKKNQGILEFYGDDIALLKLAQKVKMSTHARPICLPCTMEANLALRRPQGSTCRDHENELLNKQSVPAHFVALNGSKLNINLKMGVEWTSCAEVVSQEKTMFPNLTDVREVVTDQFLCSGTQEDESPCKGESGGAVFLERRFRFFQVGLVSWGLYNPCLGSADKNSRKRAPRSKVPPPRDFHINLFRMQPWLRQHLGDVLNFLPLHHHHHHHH

human C2 R519A = biological target: T2, human C2 R519A (human, UniProt P06681 21-752)
T2 sequence: T1 sequence with A411D, R499A

human C2 N467A = biological target: T3, human C2 N467A (human, UniProt P06681 21-752)
T3 sequence: T1 sequence with A411D, N447A

human C2 E267A = biological target: T4, human C2 E267A (human, UniProt P06681 21-752)
T4 sequence: T1 sequence with E247A, A411D

B1: RF16-226 (antibody, human IgG4 S228P, lambda)
heavy: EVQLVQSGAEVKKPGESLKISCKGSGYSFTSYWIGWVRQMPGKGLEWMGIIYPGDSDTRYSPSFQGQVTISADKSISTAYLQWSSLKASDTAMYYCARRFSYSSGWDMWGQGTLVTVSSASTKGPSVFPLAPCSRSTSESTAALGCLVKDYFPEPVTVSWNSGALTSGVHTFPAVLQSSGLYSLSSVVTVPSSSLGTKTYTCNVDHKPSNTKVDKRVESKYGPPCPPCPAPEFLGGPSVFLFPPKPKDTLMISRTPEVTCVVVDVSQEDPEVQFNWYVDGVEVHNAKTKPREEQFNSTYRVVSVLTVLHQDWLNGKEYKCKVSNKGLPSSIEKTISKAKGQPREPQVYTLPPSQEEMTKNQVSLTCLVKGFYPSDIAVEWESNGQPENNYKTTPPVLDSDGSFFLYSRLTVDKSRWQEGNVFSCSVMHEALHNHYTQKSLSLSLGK
light: SYELTQPPSVSVSPGQTARITCSGDALTSKYVAWYQQKSGLAPLLVIYEDTRRPSGIPAKFSGSSSGSVATLTISGAHGDDEADYYCYSTDASGHQRVFGGGTKLTVLSQPKAAPSVTLFPPSSEELQANKATLVCLISDFYPGAVTVAWKADGSPVKAGVETTKPSKQSNNKYAASSYLSLTPEQWKSHRSYSCQVTHEGSTVEKTVAPTECS
notes: pH-dependent anti-C2 antibody from a phage display library; also called WT
Human C2 D431A
  Fold diff: 4 fold
Human C2 R519A
  Fold diff: 1 fold
Human C2 N467A
  Fold diff: 2 fold
Human C2 E267A
  Fold diff: 1 fold
